Laboratory results taken from paper PMC9879991, “Biomolecular condensates formed by designer minimalistic peptides” (Nature Communications, 2023).
No end group written: not given here.

system: not given; test: not given; conditions: solution NMR, Trp1-Hα and Trp1-Hβ shifts at pH 6.0, 7.0, 7.5, 8.0, 9.0, Henderson-Hasselbach fit; error by Monte Carlo

Molecule	pKa of the N-terminal amine group
WGRGRGRGWPGVGF [WGR-3]	7.49 ± 0.01
WGRGRGRGWY [WGR-4]	7.37 ± 0.01
WGRGRGWPGVGY [WGR-5]	7.51 ± 0.01

biological target: Nterm1 (position 1, -----WGRGRG); test: NMR; conditions: 300 K (general NMR methods statement; not restated for the titration), NaCl 0-0.2 M used in NMR samples, concentration for the pKa titration not given, 20 mM Tris (NMR methods), Free peptide in solution, disordered

Molecule	pKa
WGRGRGRGWPGVGY [WGR-1 designer LLPS peptide (synthetic construct)]	7.50 ± 0.01
WGRGRGRGWPGVGF [WGR-3 designer LLPS peptide (Tyr14 to Phe variant of WGR-1) (synthetic construct; Y14F)]	7.49 ± 0.01
WGRGRGWPGVGY	7.51 ± 0.01
WGRGRGRGWY [WGR-4 designer LLPS peptide (WGR-1 without the ELP motif) (synthetic construct; del10-13)]	7.37 ± 0.01
